# In article doi:10.1101/2020.07.07.192757v1 (biorxiv, 2020):
# T1: AkPT1 (Angelica keiskei, UniProt A0A810JZD5)
# T1 sequence (A0A810JZD5 1-398): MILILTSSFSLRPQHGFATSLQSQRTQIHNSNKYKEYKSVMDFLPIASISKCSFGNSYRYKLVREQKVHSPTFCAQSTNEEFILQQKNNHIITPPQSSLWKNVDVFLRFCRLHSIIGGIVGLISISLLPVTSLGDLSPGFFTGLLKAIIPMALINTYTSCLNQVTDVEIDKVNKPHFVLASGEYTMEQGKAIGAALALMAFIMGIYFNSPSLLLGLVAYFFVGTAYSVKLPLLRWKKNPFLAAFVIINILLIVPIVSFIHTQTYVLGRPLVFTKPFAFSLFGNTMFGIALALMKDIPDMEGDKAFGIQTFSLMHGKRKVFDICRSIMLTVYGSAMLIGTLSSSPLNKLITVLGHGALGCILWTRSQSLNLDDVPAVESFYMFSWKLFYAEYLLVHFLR
# T2: CpPT1 (Citrus x paradisi, UniProt A0A810JZE7)
# T2 sequence (A0A810JZE7 1-408 limits assumed): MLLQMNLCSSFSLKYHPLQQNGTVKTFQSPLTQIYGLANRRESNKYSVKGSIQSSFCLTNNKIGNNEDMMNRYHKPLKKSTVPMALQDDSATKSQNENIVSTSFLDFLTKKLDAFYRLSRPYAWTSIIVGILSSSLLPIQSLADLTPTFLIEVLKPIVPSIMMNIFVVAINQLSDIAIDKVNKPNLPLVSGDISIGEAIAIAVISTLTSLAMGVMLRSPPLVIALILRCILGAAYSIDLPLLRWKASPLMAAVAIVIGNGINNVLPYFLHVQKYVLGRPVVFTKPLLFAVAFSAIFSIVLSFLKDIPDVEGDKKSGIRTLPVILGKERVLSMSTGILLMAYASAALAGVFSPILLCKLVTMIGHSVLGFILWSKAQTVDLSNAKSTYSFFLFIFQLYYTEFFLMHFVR
# B1: CpPT1 (Citrus x paradisi) (protein)
# chain: T2 sequence (A0A810JZE7 1-408 limits assumed)
# B2: AkPT1 (Angelica keiskei) (protein)
# chain: T1 sequence (A0A810JZD5 1-398)
# Legend:
# AkPT1 = biological target: T1, AkPT1; experiment: dimethylallyltransferase assay, HPLC, recombinant microsomes; assay type: cell-based; settings: read-out: Apparent Km; co-substrate DMAPP; 10 mM MgCl2, pH 8.0, 30 °C
# CpPT1 = biological target: T2, CpPT1; experiment: geranyltransferase assay, LC product quantification, recombinant microsomes; settings: read-out: Apparent Km; co-substrate GPP; 10 mM MgCl2, pH 7.6, 28 °C
# [1] = substrate: CC(C)=CCC/C(C)=C/COP(=O)(O)OP(=O)(O)O; experiment: cells, lysate or membranes; settings: co-substrate bergaptol, 10 mM MgCl2, pH 7.6, 28 °C
# [2] = substrate: COc1c2ccoc2c(O)c2oc(=O)ccc12; experiment: cells, lysate or membranes; settings: co-substrate GPP, 10 mM MgCl2, pH 7.6, 28 °C
# [3] = substrate: COc1cc(O)c2ccc(=O)oc2c1; experiment: cells, lysate or membranes; settings: co-substrate GPP, 10 mM MgCl2, pH 7.6, 28 °C
# [4] = substrate: O=c1ccc2c(O)cc(O)cc2o1; experiment: cells, lysate or membranes; settings: co-substrate GPP, 10 mM MgCl2, pH 7.6, 28 °C
# [5] = substrate: O=c1ccc2cc3ccoc3c(O)c2o1; experiment: cells, lysate or membranes; settings: co-substrate GPP, 10 mM MgCl2, pH 7.6, 28 °C
# [6] = substrate: CC(C)=CCOP(=O)(O)OP(=O)(O)O; experiment: dimethylallyltransferase assay, HPLC, recombinant microsomes; assay type: cell-based, Angelica keiskei; settings: co-substrate bergaptol, 10 mM MgCl2, pH 8.0, 30 °C
molecule,measurement,setting,value
"O=c1ccc2c(O)c3ccoc3cc2o1 [compound 12, Bergaptol]",Km,AkPT1,3.1 ± 0.3 µM
same,Km,CpPT1,52 ± 4 µM
B1,Km,[1],10 ± 1 µM
same,Km,[2],700 ± 100 µM
same,Km,[3],250 ± 30 µM
same,Km,[4],280 ± 30 µM
same,Km,[5],280 ± 20 µM
B2,Km,[6],1.8 ± 0.1 µM
